Measured values taken from patent publication US20110165592A1 (HOFFMAN LA ROCHE, published 2011).

T1: human EPO receptor (human, UniProt P19235 25-508)
T1 construct: whole, on cells; In the Western blots the receptor stood in lysates of HeLa-EPOR (recombinant) and UT-7 cells; band of about 60 kDa; also called human erythropoietin receptor
T1 sequence (looked up): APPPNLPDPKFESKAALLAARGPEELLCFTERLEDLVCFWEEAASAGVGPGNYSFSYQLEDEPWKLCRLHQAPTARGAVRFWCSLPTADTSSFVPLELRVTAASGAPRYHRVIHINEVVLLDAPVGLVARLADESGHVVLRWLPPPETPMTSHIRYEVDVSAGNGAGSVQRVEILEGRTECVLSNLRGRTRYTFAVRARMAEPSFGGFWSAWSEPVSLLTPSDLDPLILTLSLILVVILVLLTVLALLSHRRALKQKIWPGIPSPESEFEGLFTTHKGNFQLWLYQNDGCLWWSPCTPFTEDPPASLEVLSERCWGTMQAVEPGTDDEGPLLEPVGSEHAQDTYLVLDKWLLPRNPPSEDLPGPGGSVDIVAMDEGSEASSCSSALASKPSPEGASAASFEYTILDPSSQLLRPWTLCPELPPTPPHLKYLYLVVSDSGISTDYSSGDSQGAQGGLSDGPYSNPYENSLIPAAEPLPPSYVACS

T2: biotinylated peptide 382-402 (corresponding to the mature EPOR) (human, biotinylated (site not stated))
T2 construct: Range counted on mature human EPOR (aa406-426 of the precursor); also called EPOR peptide 382-402
T2 peptide: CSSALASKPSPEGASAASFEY


Assays:
human EPO receptor = molecular target: T1, human EPO receptor; test: Western blot of lysates of HELAwt, HELA-EPOR and UT-7 cells
Description: FIG. 2 WB analysis of lysates from HELAwt, HELA-EPOR and UT-7 cells (to show specificity). (a) Specific binding of Mab Cl. […] (b) Specific binding of Mab Cl.
The SDS-PAGE and western blotting were performed according to standard procedures and the NuPAGE® gel system of Invitrogen. The extracts corresponding to different number of cells were loaded in each line of a NuPAGE® Novex® 4-12% Bis-Tris gel. The proteins were then transferred onto PVDF membranes and incubated with the respective antibodies overnight at 4° C. After washing, the membranes were incubated with a conjugate anti-mouse or anti-rabbit IgG-POD and developed using ECL reagents (Lumi-Light^PLus western blotting substrate, Roche Diagnostics GmbH): Results are shown in FIG. 2.

[1] = molecular target: T2, biotinylated peptide 382-402 …; test: Biacore 3000 SPR, 25 C, antibody on immobilized biotinylated peptide (avidity)
Description: Measurements were made on a BIACORE™ 3000 at 25° C. in HBS-EP-Buffer, pH 7.4 (10 mM HEPES, 150 mM NaCl, 3.4 mM EDTA, 0.005% polysorbate 20 (w/v). 1.0 mg/ml CMD was added to reduce unspecific binding. Results are shown in Table 1.

binding result (human EPO receptor) | Ka [1] | Kd [1] | koff [1] | kon [1] | Binder
binds | 1.1e+09 M⁻¹ | 1 nM | 0.0021 s⁻¹ | 1.9e+06 M⁻¹ s⁻¹ | Mab Cl. 19.1.2 (antibody, V domains shown, Mouse (Balb/c) monoclonal raised against peptide 382-402) VH: QVQLQQSGAELVRPGSSVKISCKASGYTFSRYWMNWVKQRPGQGLEWIGQIYPGDGDTNYIGDFKGKATLTADKSSSIAYMQLSSLTSEDSAVYFCARLMVPTYGLDYWGQGTSVTVSS VL: DIVMSQSPSSLAVSAGEKVTMSCKSSQSLLNSRTRKNYLAWYQQKPGQSPKLLIYWASTRESGVPDRFTGSGSGTDFTLTIYSVQAEDLAVYYCKESYILPYTLGGGTKLEIK
binds |  |  |  |  | Mab Cl. 21.3.1 (antibody, V domains shown) VH: AVQVVESGGDLVKPGGSLQLSCAASGFTFSSYAMSWARQTPEKRLEWVATISGRGTYTYYPDSVKGRFTISRDNAKNILYLQMSSLRSEDTAMYYCTPRLFAYWGQGTLVTVSA VL: not shown
